Measured values reported in article PMC7305327, “Repurposing type I–F CRISPR–Cas system as a transcriptional activation tool in human cells”.

Target: T1, PaeCascade (type I-F Csy complex: Csy1, Csy2, Csy3, Csy4 + crRNA) (Pseudomonas aeruginosa, UniProt Q02ML9;Q02MM0;Q02MM1;Q02MM2 1-434;1-327;1-342;1-187)
T1 sequence 1: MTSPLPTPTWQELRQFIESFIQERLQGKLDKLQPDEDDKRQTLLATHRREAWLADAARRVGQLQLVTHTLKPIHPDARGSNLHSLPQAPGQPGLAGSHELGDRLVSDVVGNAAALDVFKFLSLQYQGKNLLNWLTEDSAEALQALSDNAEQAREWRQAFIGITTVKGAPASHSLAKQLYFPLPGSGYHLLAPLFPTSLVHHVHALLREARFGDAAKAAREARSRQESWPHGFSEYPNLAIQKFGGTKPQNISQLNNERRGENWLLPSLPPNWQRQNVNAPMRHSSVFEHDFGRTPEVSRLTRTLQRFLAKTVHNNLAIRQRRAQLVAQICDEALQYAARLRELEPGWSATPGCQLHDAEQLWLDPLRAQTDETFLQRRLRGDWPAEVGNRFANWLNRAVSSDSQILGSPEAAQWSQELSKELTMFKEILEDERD
T1 sequence 2: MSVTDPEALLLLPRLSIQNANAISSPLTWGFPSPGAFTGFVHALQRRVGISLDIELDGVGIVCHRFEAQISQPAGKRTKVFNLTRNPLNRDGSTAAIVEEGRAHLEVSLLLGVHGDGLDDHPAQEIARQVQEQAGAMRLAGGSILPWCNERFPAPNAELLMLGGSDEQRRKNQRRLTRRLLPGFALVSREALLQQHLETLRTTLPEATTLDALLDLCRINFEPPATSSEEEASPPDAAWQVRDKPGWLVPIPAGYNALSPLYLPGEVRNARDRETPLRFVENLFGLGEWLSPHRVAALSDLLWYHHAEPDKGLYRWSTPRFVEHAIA
T1 sequence 3: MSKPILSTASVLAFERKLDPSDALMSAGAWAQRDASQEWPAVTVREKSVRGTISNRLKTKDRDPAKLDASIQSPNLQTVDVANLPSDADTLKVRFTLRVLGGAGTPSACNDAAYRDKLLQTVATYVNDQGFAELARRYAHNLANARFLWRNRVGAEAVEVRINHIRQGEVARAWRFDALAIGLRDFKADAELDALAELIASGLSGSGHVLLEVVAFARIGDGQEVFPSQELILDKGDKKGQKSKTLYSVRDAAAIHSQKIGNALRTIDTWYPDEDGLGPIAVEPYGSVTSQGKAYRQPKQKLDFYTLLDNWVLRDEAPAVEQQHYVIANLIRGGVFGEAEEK
T1 sequence 4: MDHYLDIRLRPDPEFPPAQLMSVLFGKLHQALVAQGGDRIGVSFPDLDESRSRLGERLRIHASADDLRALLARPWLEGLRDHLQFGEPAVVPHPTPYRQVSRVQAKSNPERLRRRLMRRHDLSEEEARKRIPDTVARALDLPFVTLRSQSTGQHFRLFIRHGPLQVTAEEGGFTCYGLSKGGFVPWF
Assay: EMSA; crRNA-loaded complex; 200 nM DNA; 1 mM EDTA; 50 mM HEPES-Na pH 7.0, 50 mM NaCl, 1 mM DTT, 1 mM EDTA, 10 IU RNase inhibitor, 200 nM dsDNA, 37 C 30 min; non-denaturing TBE-PAGE, GelRed stain
Conditions: protein: recombinant; copies: 1;1;6;1; blunt

B1: type I-F EMSA target dsDNA (dsDNA)
DNA 1: CTATCGAAGCAATACAGGTAGACGCGGACATCAAGCCCGCCGTGAAGGTGCAGCTTCTC
DNA 2: GAGAAGCTGCACCTTCACGGCGGGCTTGATGTCCGCGTCTACCTGTATTGCTTCGATAG
binding result: binds
